Consider two molecules from PMC4239116, “Crystal Structure of Cytomegalovirus IE1 Protein Reveals Targeting of TRIM Family Member PML via Coiled-Coil Interactions” (PLoS Pathogens, 2014).

A word on the stoichiometry N: it is a count of units in the complex or per binding partner.

In series [1] the target is rhIE1(36-395), core domain of rhesus cytomegalovirus IE1, lysine-methylated (rhesus cytomegalovirus (rhesus macaque CMV)). Briefly: crystal structure; rhIE1(36-395), lysine-methylated; hanging drop, 0.4 M magnesium formate, 15% (w/v) PEG 3350; monoclinic P2_1 crystals and, after controlled dehydration, tetragonal P4_3 crystals (2.3 Å).
Series [2] concerns the molecule itself. Description: SEC; Superdex 200 prepgrade; 25 mM Tris, 150 mM NaCl, 10 mM DTT, pH 7.5; calibrated with the Bio-Rad gel filtration standard. For orientation: Size exclusion chromatography separates by hydrodynamic size, large species first.

For “rhIE1(36-395), core domain of rhesus cytomegalovirus IE1, lysine-methylated (domain or fragment)”, the stoichiometry N in series [1] turned out to be 2.

B1: hIE1_(CORE)(14-382), recombinant (domain or fragment)
chain: PDEGPSSKVPRPETPVTKATTFLQTMLRKEVNSQLSLGDPLFPELAEESLKTFEQVTEDCNENPEKDVLAELVKQIKVRVDMVRHRIKEHMLKKYTQTEEKFTGAFNMMGGCLQNALDILDKVHEPFEEMKCIGLTMQSMYENYIVPEDKREMWMACIKELHDVSKGAANKLGGALQAKARAKKDELRRKMMYMCYRNIEFFTKNSAFPKTTNGCSQAMAALQNLPQCSPDEIMAYAQKIFKILDEERDKVLTHIDHIFMDILTTCVETMCNEYKVTSDACMMTMYGGISLLSEFCRVLCCYVLEETSVMLAKRPLITKPEVISVMKRRIEEICMKVFAQYILGADPLRVCSPSVDDLRAIAEESDEEE
notes: also called hIE1(14-382); source: E. coli BL21(DE3), purified (glutathione sepharose, PreScission cleavage, SEC)
In the case of B1, in series [2], the binding result is recorded as “binds”.
